From US20220403048A1, “BINDING MOLECULES TO ARGINASE II [ARG2]” (Cancer Research Technology Limited, priority 2019, published 2022)

T1: ARG2 (Homo sapiens, UniProt P78540)
T1 sequence (P78540 23-354): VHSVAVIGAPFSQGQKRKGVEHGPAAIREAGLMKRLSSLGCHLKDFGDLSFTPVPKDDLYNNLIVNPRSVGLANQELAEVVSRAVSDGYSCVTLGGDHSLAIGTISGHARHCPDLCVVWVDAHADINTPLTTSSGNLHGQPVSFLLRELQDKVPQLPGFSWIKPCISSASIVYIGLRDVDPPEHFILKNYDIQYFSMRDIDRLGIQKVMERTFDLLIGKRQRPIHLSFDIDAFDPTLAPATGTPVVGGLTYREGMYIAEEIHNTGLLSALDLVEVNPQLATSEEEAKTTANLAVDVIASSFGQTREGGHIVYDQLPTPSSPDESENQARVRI

T2: recombinant human trimeric ARG1 enzyme (Homo sapiens, UniProt P05089)
T2 construct: Avi tag (N); His10 (after a GGG linker) (C); made in house; host or cells: E. coli BL21 (DE3)
T2 sequence (P05089 with tags, fused parts or gaps): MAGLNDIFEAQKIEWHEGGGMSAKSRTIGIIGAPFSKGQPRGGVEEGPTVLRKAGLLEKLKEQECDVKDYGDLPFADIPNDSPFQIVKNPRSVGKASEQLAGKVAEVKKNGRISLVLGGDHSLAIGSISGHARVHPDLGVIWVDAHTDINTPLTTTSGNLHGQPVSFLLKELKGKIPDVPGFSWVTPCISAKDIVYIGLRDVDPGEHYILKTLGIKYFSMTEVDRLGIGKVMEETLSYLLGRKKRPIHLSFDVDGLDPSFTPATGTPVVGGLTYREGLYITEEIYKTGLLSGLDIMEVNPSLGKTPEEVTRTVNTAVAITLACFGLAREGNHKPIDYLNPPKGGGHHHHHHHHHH


Tests used:
ARG2 = target: T1, ARG2; assay: T cell proliferation assay (BrdU, 96 hours) with exogenous ARG2, improved variant IgGs; type: cell-based; parameters: human ARG2 (aa23-354); His10 (C); made in house; host or cells: E. coli BL21 (DE3); details: In Presence of rhARG2; hIgG1; top conc 2 μM; n=2
Experimental: This assay served to provide evidence of improved functional efficacy for each affinity-matured antibody in comparison to the parent IgG, C0020187 (FIG. 12).
Lead optimisation clones were tested to an endpoint treatment time of 96 hours and the BrdU Cell Proliferation Kit (Roche, France; Cat: 11647229001) was used according to the manufacturer's instructions. R347 was used as the irrelevant control. All clones tested n=2.
Leukocyte cones underwent Ficoll Plaque (GE, Sweden; Cat: 17-1440-02) gradient separation, PBMC's were extracted and pan T cell population isolated by negative selection using the Human T Cell Enrichment Kit (Stemcell Technologies, France; Cat: 19051) according to the manufacturer's instructions.
40000 cells/well were seeded in complete growth media (RMPI 1640, 5% Human Serum Albumin) into a 96 well clear TC treated microplate (Greiner-Bio One, Germany; Cat: 655180). T cells were activated by the addition of ImmunoCult CD3/CD28 (Stemcell Technologies, France; Cat: 10971) at a dilution of 1:40 directly into wells and the plate incubated 37° C., 5% CO2 for 45 minutes. […]
Calculated data was expressed as % of control (Equation 3) and graphical plots were constructed using a four parameter fit and EC50's determined using model 205 in XLFit (IDBS, UK). […]

[1] = target: T2, recombinant human trimeric ARG1 enzyme; assay: Direct binding HTRF assay, human trimeric ARG1; details: purified scFv, FIG. 1B

| EC50 (ARG2) [nM] | Maximum % Proliferation (ARG2) [%] | binding to biotinylated recombinant human trimeric ARG1 enzyme [1] | Molecule |
| --- | --- | --- | --- |
| 157 | 90 | – | C0021158: anti-ARG2 antibody, second generation lead, VH SEQ ID NO: 272, VL SEQ ID NO: 277 (antibody, listed as Homo sapiens, V domains shown, C0021158) VH: EVQLLESGGGLVQPGGSLRLSCAASGFTFRYEVAAWVRQAPGKGLEWVSAISGPIPKGYYADSVKGRFTISRDNSKNTLYLQMNSLRAEDTAVYYCARLRADLGLYMDLWGRGTLVTVPS VL: QSVLTQPPSVSAAPGQKVTISCSGSSSNIGNHYVSWYQQLPGTAPKLLIYDNSERTAGVPDRFSGSKSGTSATLGITGLQTGDEADYYCGTWDELTSNLVFGGGTKLTVL |
| – | – | no binding | C0020065: anti-ARG2 antibody, alternate lead isolation clone, VH SEQ ID NO: 2, VL SEQ ID NO: 7 (antibody, listed as Homo sapiens, V domains shown, C0020065) VH: GVNLRESGGGVVQPGRSLRLSCAASGFTFSSYAMHWVRQAPGKGLEWVAVISYDGSNKYYVDSVKGRFTISRDNSKNTLYLQMNSLRAEDTAVYYCARDSSQLWFDYWGRGTLVTVSS VL: QSVVTQPPSVSGAPGQRVTISCTGSSSNIGTGYDVHWYQQLPGTAPKLLIYGNSNRPSGVPDRFSGSKSGTSASLAITGLQAEDEADYYCQSYDSSLSGSVVFGGGTQLTVL |
